Measurements: US8455448B2, “Myostatin isoform” (Myostin Therapeutics Pty Ltd, priority 2004, dated 2013)

T1: myostatin (Bos taurus, UniProt O18836)
T1 sequence (O18836 267-375): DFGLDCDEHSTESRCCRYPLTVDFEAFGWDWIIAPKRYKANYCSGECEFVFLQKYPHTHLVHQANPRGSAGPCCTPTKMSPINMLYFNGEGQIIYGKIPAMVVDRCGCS

B1: roMSV65: 65 amino acid C-terminal peptide of ovine MSV (SEQ ID NO: 49) expressed as recombinant protein in E. coli (protein)
chain: VHFYTPPYGQWIFHKERKIIFLEVYIQFCSILGEAVFKRQSKSIHFCQNFKIIACLCNTAAFRMK
modifications: Ovis aries

Molecular target: T1, myostatin
Test: MSV/canonical myostatin competition in C2C12 proliferation assay
Type: cell-based, bovine
Conditions: 1.5 μg/ml Mstn
Description: Competition of roMSV65 with canonical myostatin was carried out with C2C12 murine myoblasts. Myoblasts were seeded in 96-well tissue culture plates (Nunc, Roskilde, Denmark) at a cell density of 1000 cells per well in 200 μl of Dulbecco's modified Eagle's medium (DMEM, Invitrogen, California) supplemented with foetal bovine serum (FBS, 10% v/v, Invitrogen), penicillin (1×10^5 IU/l, Sigma, St Louis, Mo., USA) and streptomycin (100 mg/l, Sigma) buffered with NaHCO3 containing phenol red (7.22 nmol/l) as a pH indicator, and incubated overnight at 37° C. with 5% CO2. The medium was replaced with DMEM 10% FBS test medium containing no added protein, 1.5 or 2.5 μg/ml recombinant myostatin alone and with combination of 1, 2, 4, 10, 20 molar ratio of roMSV65, and the same amounts of roMSV65 without myostatin in a semi-random arrangement of eight replicates (n=8) for each test medium. Plates were incubated at 37° C. with 5% CO2 for 72 hours, and then the medium was removed. […] The plates were gently shaken and the absorbance was measured at 655 nm using a microplate photometer (VersaMax, Molecular Devices, CA).
Competition of roMSV47 with canonical myostatin was carried out with C2C12 murine myoblasts. […] The plates were gently shaken and the absorbance was measured at 655 nm using a microplate photometer (VersaMax, Molecular Devices, CA). […]

Row | Molecule | restoring of myostatin inhibited proliferation (1:10 molar ratio of myostatin to MSV, 69 h, FIG. 11) | overcoming myostatin-induced inhibition of proliferation (48 h, FIG. 9)
1 | roMSV47: 47 amino acid C-terminal mature ovine MSV fragment (SEQ ID NO: 50), recombinant from E. coli (IIFLEVYIQFCSILGEAVFKRQSKSIHFCQNFKIIACLCNTAAFRMK; Ovis aries) | ineffective at restoring proliferation | 
2 | B1 |  | overcame myostatin-induced inhibition of proliferation
